Test results reported in the DeepSol protein solubility set.

assay: soluble on expression in E. coli; label from the status in PepcDB or PDB records

| Sequence | soluble on expression in E. coli |
| --- | --- |
| MALEPIDYTTHSREIDAEYLKIVRGSDPDTTWLIISPNAKKEYEPESTGSSFHDFLQLFDETKVQYGLARVSPPGSDVEKIIIIGWCPDSAPLKTRASFAANFAAVANNLFKGYHVQVTARDEDDLDENELLMKISNAAGA | soluble |
| MARSFKVLSPTAILGYGFPEESFRKAMAESPDLIAVDAGSSDPGPHYLGAGKPFTDRAGVKRDLRYMITAGVQNNIPVVIGTAGGSGAAPHLEWCREIIHEIAREEHLSFSMALIPADVDKAIVHQALDNGKITALDFVPPLTHDAIDESTYIVAQMGIEPFQRALKERAQVVLGGRAYDPACFAALPIMQGFDEGLALHCGKILECAAIAATPGSGSDCAMGIIDDNGFTLKTFNPKRKFTETSAAAHTLYEKSDPYFLPGPGGVLNLKGCTFKAVNDGEVYVSGSKHEETPYALKLEGARRVGFRCLTIAGTRDPIMIAGIDKIIDEVKTSVSRNLSLDDDSIRINFHLYGKNGVMGDHEPMQTAGHELGIVLDVVAPTQEIANSVCSLVRSTMLHYGYENRIATAGNLAFPFSPSDIQGGPVYEFSIYHLIEANDALRFDFHIEQVTPEGVQA | soluble |
| MSKRYAVVLAAGQGTRMKSKLYKVLHPVCGKPMVEHVVDQISTLNVDKVVTIVGHGAEKVQEHLAGKSEFVKQDEQLGTAHAVLQAKAELAGKDGVTLVVCGDTPLIEASTMEALLKYHHEKRAKATILTTVIEDPTGYGRIIRDDLGIVEKIVEHKDATEKEQRISEINTGTYCFDNKALFEALENVSNDNVQGEYYLPDVIKILKDSDEVVAAYRMESFEESLGVNDRIALAEASKLMQRRINENHMRNGVTLVNPESTYIDIDVKIGQDTVIEPGVMLRGKTVIGDDCVVTSGSEIVNSVIGERVHVRTSSIFESKVGDDVQIGPYAHLRPESDIHDHVKIGNYVETKKAVVGEGTKLPHFIYMGDAEIGKNVNVGCGSIAVNYDGKNKAKTIIGDNVFVGCNSNLIAPVKVGDRAFIAAGSTITKDVPEDALGIARAKQDNKLGYAKHLNHSK | not soluble |
| MSLTKALTFTILHNDMPTYPMKRDWLFWKEVTERTGVTLKPTSVPASDYDKKRSLLIGAGDAPLLIPKTYPGQETAFVSSGAILPVSEYVRLMPNFRAKVEKWGLEGDLDSIRQADGNYYVLPGLHEKVKSGYSLSFRTDVLKKHGLDLPTTWDQVYDVLKALKAAYPDVYPFSDRWGQPTPGGALLNYLGPAFGTKAGWSYANTAWDTKARKYVFTGATDEYRQMLEYLRKLVAEKLMDPESFTQSDDDAVRKLLSGKSFVISANPQELVQNYRYNLGKQVKGATIEMIPVPIGPTGEVIVGSRLENGLMVAGRAAEGDSFVAMMQFVDWLWYSDGGQEFAKYGVEGVTYTSSGAGRYKVADGISYMGSDPSAPKDLQKDYGFTNGEFAYGGSWALVSSSFSPDEKAFQDAMAGRKLLPVDPAHPLKADEQEQATLWDTPLKDHVTQNTLKFALGKRPMSEWDAYLAELKAKNMQRYIDLHNTAYERFKKEHEGHHHHHH | not soluble |
| MKAESSNESFIIGQRVHSLNDSRRVGTVKYVGDVEGYSGTWIGVDWDQDGDGKHNGSVNGVFYFNGRSQSSASFVRSQNLSRGITLLQALELRYRTISTKDEEDEMYVLSAGNRRVSIQLLGGDKIQDKLSRFEELTSASLSYLGVSSLGVSSDLGSILPNLKLLDLTGNLISDWEEIGALCEQLPALTTLNLSCNSLSSDIKSLPQLKNIRVLVLNNSGLSWTQVEILRRSLPGIEELHLMGNMISTITSTSSSDDQAFNSLRLLNLDDNCISDWSEVLKLSQLPCLEQLYLNKNKLSRIFQSVNGTESSEKGSDPFPSLSCLLLGANNIGDLASVDALNGFPQLVDIRLSENPISDPVRGGVPRFVLVARLTKVQVLNGSEVRAREKKDSEIRYVRMVMSKLNDKSGEIELLHPRFYELKKLHGIEDERASAENSGPKNIASGLISITLKCVGPSMGEKPHLTKKLPGSITVGKLKILSENFFKLKSIKPRLFLQEEGSPFPTALDDETATLLDVGICDGSTLLVDEES | soluble |
